Assay results published in paper PMC7717681, “Biochemical and structural characterisation of a protozoan beta-carbonic anhydrase from Trichomonas vaginalis” (Journal of Enzyme Inhibition and Medicinal Chemistry, 2020).

Target: the molecule itself
Experiment: SEC-MALS; SEC combined with static and dynamic light scattering (SEC-SLS/DLS, right-angle light scattering) and a SEC standard curve; Superdex 200 5/150, 50 mM NaH2PO4, 500 mM NaCl, pH 8, 20 °C; after His-tag removal

B1: beta-carbonic anhydrase from Trichomonas vaginalis (TvaCA1) (enzyme)
chain: MSQLELITSANQAFLEANPELTKLNKAPQRHIAIVTCMDTRLVNFAEDAIGVKRGEATVIKAAGNGIWTTGLSDIVVSLLVSIYELGVQEIFIMGHECCGMTHASTDSLGAQMLKSGIKPEDIEKFKSDLSKWVDDFKDPIDNIKNSVRCVRENPLIPKNIPIHGLLIHPDTGKVTTIINGY
notes: TvaCA1, beta-carbonic anhydrase of Trichomonas vaginalis, gene TVAG_005270, UniProt A2ENQ8; Zinc metalloenzyme; The His-tag was removed by thrombin at an LVPRGS site; also called β-CA from T. vaginalis; source: E. coli BL21 Star (DE3), purified (Ni2+-NTA, His-tag removed by thrombin, second Ni2+-NTA; SEC in addition for crystallisation); not shown: His6, N-terminal, cleaved
  stoichiometry N: 2
